The text below walks through data of the RNAGym collection of RNA variant scans (doi:10.7554/elife.80360).

First the molecules themselves.
B1: CPEB3 Ribozyme (parent)
chain: GGGGGCCACAGCAGAAGCGUUCACGUCGCGGCCCCUGUCAGAUUCUGGUGAAUCUGCGAAUUCUGCUGU

The variants in the data set derive from B1. The data set can be described thus: self-cleavage, relative activity (ratio to wild type); higher = more cleavage; co-transcriptional.
Regarding GGGGACCACAGCACAAGCGUUCACGUCGCGGCCCCUGUCAGAUUCUGGUGAAUCUGCGAAUUCUGCUGU, the self-cleavage was determined as 0.159.
Next, GGGGACCACAGCAAAAGCGUUCACGUCGCGGCCCCUGUCAGAUUCUGGUGAAUCUGCGAAUUCUGCUGU: 0.325; GGGGACCACAGCAUAAGCGUUCACGUCGCGGCCCCUGUCAGAUUCUGGUGAAUCUGCGAAUUCUGCUGU: 0.365.
Consider GGGGACCACAGCAGAAGCGUUCACGUCGCGGCCCCUGUCAGAUUUUGGUGAAUCUGCGAAUUCUGCUGU, for which the self-cleavage came out at 0.913.
For the variant GGGGACCACAGCAGAAGCGUUCACGUCGCGGCCCCUGUCAGAUUAUGGUGAAUCUGCGAAUUCUGCUGU, the self-cleavage stood at 0.832.
GGGGACCACAGCAGAAGCGUUCACGUCGCGGCCCCUGUCAGAUUGUGGUGAAUCUGCGAAUUCUGCUGU: the self-cleavage came to 0.823.
For GGGGACCACAGCAGAAGCGUUCACGUCGCGGCCCCUGUCAGAUUCUGGUGAAUGUGCGAAUUCUGCUGU, the self-cleavage turned out to be 0.394.
Next, GGGGACCACAGCAGAAGCGUUCACGUCGCGGCCCCUGUCAGAUUCUGGUGAAUAUGCGAAUUCUGCUGU: 0.546.
Next, GGGGACCACAGCAGAAGCGUUCACGUCGCGGCCCCUGUCAGAUUCUGGUGAAUUUGCGAAUUCUGCUGU: 0.893.
The value for GGGGACCACAGCAGAAGCGUUCACGUCGCGGCCCCUGUCAGAUUCUGGUGAAUCUGCGAAUUUUGCUGU was 0.915.
For GGGGACCACAGCAGAAGCGUUCACGUCGCGGCCCCUGUCAGAUUCUGGUGAAUCUGCGAAUUAUGCUGU, the self-cleavage amounted to 0.427.
The value for GGGGACCACAGCAGAAGCGUUCACGUCGCGGCCCCUGUCAGAUUCUGGUGAAUCUACGAAUUCUGCUGU was 0.759.
Next, GGGGACCACAGCAGAAGCGUUCACGUCGCGGCCCCUGUCAGAUUCUGGUGAAUCUUCGAAUUCUGCUGU: 0.772; GGGGACCACAGCAGAAGCGUUCACGUCGCGGCCCCUGUCAGAUUCUGGUGAAUCUCCGAAUUCUGCUGU: 0.407.
Turning to GGGGACCACAGCAGAAGCGUUCACGUCGCGGCCCCUGUCAGAUUCUGGAGAAUCUGCGAAUUCUGCUGU, the self-cleavage was found to be 0.926.
Consider GGGGACCACAGCAGAAGCGUUCACGCCGCGGCCCCUGUCAGAUUCUGGUGAAUCUGCGAAUUCUGCUGU, for which the self-cleavage worked out at 0.853.
Next, GGGGACCACAGCAGAAGCGUUCACGACGCGGCCCCUGUCAGAUUCUGGUGAAUCUGCGAAUUCUGCUGU: 0.498.
The value for GGGGACCACAGCAGAAGCGUUCACGGCGCGGCCCCUGUCAGAUUCUGGUGAAUCUGCGAAUUCUGCUGU was 0.611; that for GGGGACCACAGCAGAAGCGUUCACGUCGCGGCCCCUGUCAGAUUCUGGUAAAUCUGCGAAUUCUGCUGU was 0.941.
In the case of GGGGACCACAGCAGAAGCGUUCACGUCGCGGCCCCUGUCAGAUUCUGGUCAAUCUGCGAAUUCUGCUGU, the self-cleavage stood at 0.902.
GGGGACCACAGCAGAAGCGUUCACGUCGCGGCCCCUGUCAGAUUCUGGUGAAUCUGCGAAUUCUGGUGU: the self-cleavage turned out to be 0.826.
The value for GGGGACCACAGCAGAAGCGUUCACGUCGCGGCCCCUGUCAGAUUCUGGUGAAUCUGCGAAUUCUGAUGU was 0.727; that for GGGGACCACAGCAGAAGCGUACACGUCGCGGCCCCUGUCAGAUUCUGGUGAAUCUGCGAAUUCUGCUGU was 0.837; that for GGGGACCACAGCAGAAGCGUCCACGUCGCGGCCCCUGUCAGAUUCUGGUGAAUCUGCGAAUUCUGCUGU was 0.56.
Next, GGGGACCACAGCAGAAUCGUUCACGUCGCGGCCCCUGUCAGAUUCUGGUGAAUCUGCGAAUUCUGCUGU: 0.152; GGGGACCACAGCAGAAGCGUUCACGUCGCGGCCCCUGUCAGAUUCUAGUGAAUCUGCGAAUUCUGCUGU: 0.964; GGGGACCACAGCAGAAGCGUUCACGUCGCGGCCCCUGUCAGAUUCUCGUGAAUCUGCGAAUUCUGCUGU: 0.914.
Next, GGGGACCACAGCAGAAGCGUUCACGUCGCGGCCCCUGGCAGAUUCUGGUGAAUCUGCGAAUUCUGCUGU: 0.129.
For the variant GGGGACCACAGCAGAAGCGUUCACGUCGCGGCCCCUGACAGAUUCUGGUGAAUCUGCGAAUUCUGCUGU, the self-cleavage came to 0.816.
As to GGGGACCACAGCAGAAGCGUUCACGUCGCGGCCCCUGCCAGAUUCUGGUGAAUCUGCGAAUUCUGCUGU, the self-cleavage is 0.749.
The value for GGGGACCACAGCAGAAGCGUUCACGUCGCGGCCCCUCUCAGAUUCUGGUGAAUCUGCGAAUUCUGCUGU was 0.171.
Consider GGGGACCACAGCAGAAGCGUUCACGUCGCGGCCCCUUUCAGAUUCUGGUGAAUCUGCGAAUUCUGCUGU, for which the self-cleavage was found to be 0.165.
The value for GGGGACCACAGCAGAAGCGUUCACGUCGCGGCCCCUGUCAGAUUCUGGUGAAUCUGGGAAUUCUGCUGU was 0.234; that for GGGGACCACAGCAGAAGCGUUCACGUCGCGGCCCCUGUCAGAUUCUGGUGAAUCUGUGAAUUCUGCUGU was 0.304.
GGGGACCACAGCAGAAGCGUUCACGUCGCGGCCCCUGUCAGAUUCUGGUGAAUCUGAGAAUUCUGCUGU: the self-cleavage worked out at 0.224.
As to GGGGACCACAGCAGAAGCGCUCACGUCGCGGCCCCUGUCAGAUUCUGGUGAAUCUGCGAAUUCUGCUGU, the self-cleavage was found to be 0.109.
GGGGACCACAGCAGAAGCGGUCACGUCGCGGCCCCUGUCAGAUUCUGGUGAAUCUGCGAAUUCUGCUGU: the self-cleavage worked out at 0.111.
Next, GGGGACCACAGCAGAAGCGUUCACGUCGCGGCGCCUGUCAGAUUCUGGUGAAUCUGCGAAUUCUGCUGU: 0.136.
The value for GGGGACCACAUCAGAAGCGUUCACGUCGCGGCCCCUGUCAGAUUCUGGUGAAUCUGCGAAUUCUGCUGU was 0.778.
